Positions count from the first letter of the chain named.
How the values were obtained:
Experiment in all cases: holdup assay
Design in all cases: key: below the threshold = too weak to quantify, mostly under pKd 3.1 to 4
Conditions in all cases: plain residues with an end cap or a label only (N-terminal biotin on a linker: ado-ado)
MAGI1_2, Q96QZ7 = molecular target: MAGI1_2, Q96QZ7
FRMPD2_1, Q68DX3 = molecular target: FRMPD2_1, Q68DX3
MPDZ_5, O75970 = molecular target: T1, MPDZ_5, O75970
T1 sequence (O75970 695-796, limits assumed, looked up): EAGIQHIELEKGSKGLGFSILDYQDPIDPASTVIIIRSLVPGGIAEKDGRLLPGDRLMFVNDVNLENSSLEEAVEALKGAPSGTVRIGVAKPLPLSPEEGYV

Inadl_6, Q8NI35 = molecular target: Inadl_6, Q8NI35
Sequence of Inadl_6, Q8NI35 (Q8NI35 1058-1167): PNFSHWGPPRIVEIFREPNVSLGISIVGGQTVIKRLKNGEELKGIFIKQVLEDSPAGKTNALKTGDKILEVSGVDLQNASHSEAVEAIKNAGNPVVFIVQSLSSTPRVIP

DLG5_1, Q8TDM6 = molecular target: DLG5_1, Q8TDM6
Sequence of DLG5_1, Q8TDM6 (Q8TDM6 617-713): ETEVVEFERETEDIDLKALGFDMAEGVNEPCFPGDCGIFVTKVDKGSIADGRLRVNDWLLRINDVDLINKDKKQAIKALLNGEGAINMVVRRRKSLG

LIN7B, Q9HAP6 = molecular target: T2, LIN7B, Q9HAP6
T2 sequence (Q9HAP6 88-185, limits assumed, looked up): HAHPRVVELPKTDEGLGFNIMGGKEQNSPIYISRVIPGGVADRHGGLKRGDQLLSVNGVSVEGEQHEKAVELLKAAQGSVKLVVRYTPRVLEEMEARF

GRASP, Q7Z6J2 = molecular target: GRASP, Q7Z6J2
Sequence of GRASP, Q7Z6J2 (Q7Z6J2 96-193): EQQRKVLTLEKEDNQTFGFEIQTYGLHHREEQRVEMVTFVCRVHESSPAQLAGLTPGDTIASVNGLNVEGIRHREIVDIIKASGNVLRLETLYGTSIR

PDZD2_2, O15018 = molecular target: T3, PDZD2_2, O15018
T3 sequence (O15018 329-429, limits assumed, looked up): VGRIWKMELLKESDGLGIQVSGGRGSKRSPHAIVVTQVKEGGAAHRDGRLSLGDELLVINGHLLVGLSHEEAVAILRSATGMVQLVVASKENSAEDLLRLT

MPP6, Q9NZW5 = molecular target: T4, MPP6, Q9NZW5
T4 sequence (Q9NZW5 125-219, limits assumed, looked up): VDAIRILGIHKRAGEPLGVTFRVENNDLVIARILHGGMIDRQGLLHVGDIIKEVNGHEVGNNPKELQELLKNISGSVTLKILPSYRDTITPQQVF

LIN7C, Q9NUP9 = molecular target: T5, LIN7C, Q9NUP9
T5 sequence (Q9NUP9 88-185, limits assumed, looked up): T2 sequence (Q9HAP6 88-185, limits assumed, looked up) with A2S, D13E, V35I, V40I, Q65H, S79K, R89K, A96S

LAP2, Q96RT1 = molecular target: LAP2, Q96RT1
Sequence of LAP2, Q96RT1 (Q96RT1 other isoform, or with tags, fused parts or gaps): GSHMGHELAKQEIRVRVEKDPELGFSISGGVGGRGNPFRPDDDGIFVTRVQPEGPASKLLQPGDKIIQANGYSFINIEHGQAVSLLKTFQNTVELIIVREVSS

SNTB1, Q13884 = molecular target: T6, SNTB1, Q13884
T6 sequence (Q13884 107-205, limits assumed, looked up): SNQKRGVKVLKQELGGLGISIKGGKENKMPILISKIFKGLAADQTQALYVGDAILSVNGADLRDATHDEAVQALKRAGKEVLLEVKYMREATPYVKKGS

LNX1_2, Q8TBB1 = molecular target: LNX1_2, Q8TBB1
Sequence of LNX1_2, Q8TBB1 (Q8TBB1 371-470): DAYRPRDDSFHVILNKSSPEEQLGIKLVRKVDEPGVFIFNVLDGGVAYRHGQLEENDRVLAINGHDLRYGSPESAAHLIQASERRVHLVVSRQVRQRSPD

ARHGAP21, Q5T5U3 = molecular target: T7, ARHGAP21, Q5T5U3
T7 sequence (Q5T5U3 45-169, limits assumed, looked up): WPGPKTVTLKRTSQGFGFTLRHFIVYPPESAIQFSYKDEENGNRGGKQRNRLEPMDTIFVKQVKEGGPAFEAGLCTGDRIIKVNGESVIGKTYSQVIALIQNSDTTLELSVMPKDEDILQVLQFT

GRIP1_4, Q9Y3R0 = molecular target: T8, GRIP1_4, Q9Y3R0
T8 sequence (Q9Y3R0 467-571, limits assumed, looked up): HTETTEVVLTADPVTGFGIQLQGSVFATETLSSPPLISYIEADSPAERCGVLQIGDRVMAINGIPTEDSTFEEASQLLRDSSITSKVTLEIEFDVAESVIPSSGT

AHNAK1, Q09666 = molecular target: AHNAK1, Q09666
Sequence of AHNAK1, Q09666 (Q09666 4-100): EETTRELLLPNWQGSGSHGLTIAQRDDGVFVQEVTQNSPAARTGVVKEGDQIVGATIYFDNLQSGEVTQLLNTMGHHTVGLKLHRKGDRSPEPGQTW

PICK1, Q9NRD5 = molecular target: PICK1, Q9NRD5
Sequence of PICK1, Q9NRD5 (Q9NRD5 17-115): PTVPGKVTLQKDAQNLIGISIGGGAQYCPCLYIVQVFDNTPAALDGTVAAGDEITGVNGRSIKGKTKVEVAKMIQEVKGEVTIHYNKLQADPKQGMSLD

MPDZ_10, O75970 = molecular target: T9, MPDZ_10, O75970
T9 sequence (O75970 1624-1722, limits assumed, looked up): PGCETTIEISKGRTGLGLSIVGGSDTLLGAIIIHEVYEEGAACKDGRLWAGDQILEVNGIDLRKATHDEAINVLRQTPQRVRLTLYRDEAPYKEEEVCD

SCRIB_3, Q14160 = molecular target: SCRIB_3, Q14160
Sequence of SCRIB_3, Q14160 (Q14160 999-1103): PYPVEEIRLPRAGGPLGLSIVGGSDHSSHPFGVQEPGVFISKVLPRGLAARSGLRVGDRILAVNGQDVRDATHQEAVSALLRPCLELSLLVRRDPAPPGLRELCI

SNX27, Q96L92 = molecular target: SNX27, Q96L92
FRMPD2_2, Q68DX3 = molecular target: FRMPD2_2, Q68DX3
Sequence of FRMPD2_2, Q68DX3 (Q68DX3 944-1038): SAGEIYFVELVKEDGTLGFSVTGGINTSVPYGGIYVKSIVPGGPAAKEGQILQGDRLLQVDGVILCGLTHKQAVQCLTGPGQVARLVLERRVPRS

GRID2IP_2, A4D2P6 = molecular target: GRID2IP_2, A4D2P6
Sequence of GRID2IP_2, A4D2P6 (A4D2P6 272-370): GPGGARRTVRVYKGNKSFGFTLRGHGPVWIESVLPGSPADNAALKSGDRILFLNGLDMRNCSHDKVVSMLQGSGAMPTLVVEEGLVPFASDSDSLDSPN

TX1BP3, O14907 = molecular target: T10, TX1BP3, O14907
T10 sequence (O14907 10-122, limits assumed, looked up): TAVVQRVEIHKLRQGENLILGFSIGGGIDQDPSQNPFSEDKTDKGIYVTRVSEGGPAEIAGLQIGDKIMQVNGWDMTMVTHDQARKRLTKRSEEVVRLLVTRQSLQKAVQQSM

DLG3_1, Q92796 = molecular target: T11, DLG3_1, Q92796
T11 sequence (Q92796 125-227, limits assumed, looked up): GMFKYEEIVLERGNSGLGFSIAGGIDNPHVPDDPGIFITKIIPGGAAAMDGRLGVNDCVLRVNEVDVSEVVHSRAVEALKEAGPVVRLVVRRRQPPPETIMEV

TIAM2, Q8IVF5 = molecular target: T12, TIAM2, Q8IVF5
T12 sequence (Q8IVF5 885-986, limits assumed, looked up): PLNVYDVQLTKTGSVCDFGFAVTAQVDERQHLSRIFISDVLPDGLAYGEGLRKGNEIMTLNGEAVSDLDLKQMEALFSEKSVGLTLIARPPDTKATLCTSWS

Sequence of FRMPD2_1, Q68DX3 (Q68DX3 770-861): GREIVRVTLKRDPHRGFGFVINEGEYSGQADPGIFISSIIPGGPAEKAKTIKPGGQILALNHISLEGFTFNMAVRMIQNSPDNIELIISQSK
Sequence of MAGI1_2, Q96QZ7 (Q96QZ7 456-580): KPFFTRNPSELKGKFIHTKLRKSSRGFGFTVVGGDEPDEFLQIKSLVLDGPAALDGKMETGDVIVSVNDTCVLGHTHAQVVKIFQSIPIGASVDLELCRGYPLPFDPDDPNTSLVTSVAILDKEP

B1: SLC2A7, Q6PXP3 (peptide)
chain: TASPAKETSF
- pKd (MAGI1_2, Q96QZ7): below the threshold
- pKd (FRMPD2_1, Q68DX3): below the threshold
- pKd (MPDZ_5, O75970): below the threshold
- pKd (Inadl_6, Q8NI35): below the threshold
- pKd (DLG5_1, Q8TDM6): below the threshold
- pKd (LIN7B, Q9HAP6): 4.5
- pKd (GRASP, Q7Z6J2): below the threshold
- pKd (PDZD2_2, O15018): below the threshold
- pKd (MPP6, Q9NZW5): below the threshold
- pKd (LIN7C, Q9NUP9): 4.36
- pKd (LAP2, Q96RT1): below the threshold
- pKd (SNTB1, Q13884): 3.53
- pKd (LNX1_2, Q8TBB1): below the threshold
- pKd (ARHGAP21, Q5T5U3): below the threshold
- pKd (GRIP1_4, Q9Y3R0): below the threshold
- pKd (AHNAK1, Q09666): below the threshold
- pKd (PICK1, Q9NRD5): below the threshold
- pKd (MPDZ_10, O75970): below the threshold
- pKd (SCRIB_3, Q14160): 5.14
- pKd (SNX27, Q96L92): 5.48
- pKd (FRMPD2_2, Q68DX3): below the threshold
- pKd (GRID2IP_2, A4D2P6): below the threshold
- pKd (TX1BP3, O14907): 3.79
- pKd (DLG3_1, Q92796): below the threshold
- pKd (TIAM2, Q8IVF5): 3.63

B2: ADAM22, Q9P0K1 (peptide)
chain: QSARLWETSI
- pKd (MAGI1_2, Q96QZ7): below the threshold
- pKd (FRMPD2_1, Q68DX3): below the threshold
- pKd (MPDZ_5, O75970): below the threshold
- pKd (Inadl_6, Q8NI35): 4.06
- pKd (DLG5_1, Q8TDM6): below the threshold
- pKd (LIN7B, Q9HAP6): 4.35
- pKd (GRASP, Q7Z6J2): 4.17
- pKd (PDZD2_2, O15018): 4.46
- pKd (MPP6, Q9NZW5): below the threshold
- pKd (LIN7C, Q9NUP9): 4.5
- pKd (LAP2, Q96RT1): 3.96
- pKd (SNTB1, Q13884): 4.69
- pKd (LNX1_2, Q8TBB1): below the threshold
- pKd (ARHGAP21, Q5T5U3): below the threshold
- pKd (GRIP1_4, Q9Y3R0): below the threshold
- pKd (AHNAK1, Q09666): below the threshold
- pKd (PICK1, Q9NRD5): 3.91
- pKd (MPDZ_10, O75970): below the threshold
- pKd (SCRIB_3, Q14160): 5.32
- pKd (SNX27, Q96L92): 5.41
- pKd (FRMPD2_2, Q68DX3): 3.97
- pKd (GRID2IP_2, A4D2P6): 4.3
- pKd (TX1BP3, O14907): 4.8
- pKd (DLG3_1, Q92796): below the threshold
- pKd (TIAM2, Q8IVF5): 3.97

B3: GHRHR, Q02643 (peptide)
chain: SAAKVLTSMC
- pKd (MAGI1_2, Q96QZ7): below the threshold
- pKd (FRMPD2_1, Q68DX3): below the threshold
- pKd (MPDZ_5, O75970): below the threshold
- pKd (Inadl_6, Q8NI35): below the threshold
- pKd (DLG5_1, Q8TDM6): below the threshold
- pKd (LIN7B, Q9HAP6): 3.7
- pKd (GRASP, Q7Z6J2): 4.32
- pKd (PDZD2_2, O15018): 4.75
- pKd (MPP6, Q9NZW5): below the threshold
- pKd (LIN7C, Q9NUP9): below the threshold
- pKd (LAP2, Q96RT1): below the threshold
- pKd (SNTB1, Q13884): 3.53
- pKd (LNX1_2, Q8TBB1): below the threshold
- pKd (ARHGAP21, Q5T5U3): below the threshold
- pKd (GRIP1_4, Q9Y3R0): below the threshold
- pKd (AHNAK1, Q09666): below the threshold
- pKd (PICK1, Q9NRD5): below the threshold
- pKd (MPDZ_10, O75970): 3.49
- pKd (SCRIB_3, Q14160): 3.61
- pKd (SNX27, Q96L92): 5.16
- pKd (FRMPD2_2, Q68DX3): below the threshold
- pKd (GRID2IP_2, A4D2P6): 4.38
- pKd (TX1BP3, O14907): 3.54
- pKd (DLG3_1, Q92796): below the threshold
- pKd (TIAM2, Q8IVF5): below the threshold

B4: FLVCR1, Q9Y5Y0 (peptide)
chain: MLSKQSESAI
- pKd (MAGI1_2, Q96QZ7): below the threshold
- pKd (FRMPD2_1, Q68DX3): below the threshold
- pKd (MPDZ_5, O75970): below the threshold
- pKd (Inadl_6, Q8NI35): below the threshold
- pKd (DLG5_1, Q8TDM6): below the threshold
- pKd (LIN7B, Q9HAP6): below the threshold
- pKd (GRASP, Q7Z6J2): below the threshold
- pKd (PDZD2_2, O15018): 4.46
- pKd (MPP6, Q9NZW5): below the threshold
- pKd (LIN7C, Q9NUP9): below the threshold
- pKd (LAP2, Q96RT1): below the threshold
- pKd (SNTB1, Q13884): 3.68
- pKd (LNX1_2, Q8TBB1): below the threshold
- pKd (ARHGAP21, Q5T5U3): 4.1
- pKd (GRIP1_4, Q9Y3R0): below the threshold
- pKd (AHNAK1, Q09666): below the threshold
- pKd (PICK1, Q9NRD5): below the threshold
- pKd (MPDZ_10, O75970): below the threshold
- pKd (SCRIB_3, Q14160): 4.61
- pKd (SNX27, Q96L92): 4.4
- pKd (FRMPD2_2, Q68DX3): below the threshold
- pKd (GRID2IP_2, A4D2P6): below the threshold
- pKd (TX1BP3, O14907): 4.1
- pKd (DLG3_1, Q92796): below the threshold
- pKd (TIAM2, Q8IVF5): below the threshold
